Data reported in paper PMC2191977 (The Journal of Experimental Medicine, 1995).

Assays:
Test in all cases: flow cytometry on cells
B7 K173E = target: T1, B7 K173E (mouse, UniProt Q00609 38-306, K173E)
T1 sequence (looked up): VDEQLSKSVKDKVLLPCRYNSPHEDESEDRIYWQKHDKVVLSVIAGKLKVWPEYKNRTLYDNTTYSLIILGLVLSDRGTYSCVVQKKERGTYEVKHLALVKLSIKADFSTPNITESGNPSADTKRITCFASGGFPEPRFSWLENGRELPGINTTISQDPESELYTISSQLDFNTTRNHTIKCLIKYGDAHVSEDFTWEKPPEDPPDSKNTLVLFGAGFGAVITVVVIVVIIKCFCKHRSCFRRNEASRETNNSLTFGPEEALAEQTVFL

B7 E180D = target: T2, B7 E180D (mouse, UniProt Q00609 38-306, E180D)
T2 sequence (looked up): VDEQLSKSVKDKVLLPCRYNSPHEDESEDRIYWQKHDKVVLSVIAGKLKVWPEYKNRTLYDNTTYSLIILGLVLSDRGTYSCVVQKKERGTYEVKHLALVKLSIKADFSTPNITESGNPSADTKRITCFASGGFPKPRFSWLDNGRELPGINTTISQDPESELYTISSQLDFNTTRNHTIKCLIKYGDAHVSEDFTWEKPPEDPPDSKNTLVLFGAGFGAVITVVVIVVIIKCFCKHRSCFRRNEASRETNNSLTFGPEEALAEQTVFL

B7 L200A = target: T3, B7 L200A (mouse, UniProt Q00609 38-306, L200A)
T3 sequence (looked up): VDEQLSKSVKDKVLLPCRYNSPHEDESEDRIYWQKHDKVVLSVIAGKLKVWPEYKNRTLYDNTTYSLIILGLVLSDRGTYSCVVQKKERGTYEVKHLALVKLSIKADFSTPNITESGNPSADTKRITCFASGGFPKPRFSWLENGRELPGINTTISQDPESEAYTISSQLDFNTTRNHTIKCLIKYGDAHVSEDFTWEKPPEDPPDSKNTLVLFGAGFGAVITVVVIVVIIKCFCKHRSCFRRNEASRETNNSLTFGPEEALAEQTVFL

murine B7 (wild type) = target: T4, murine B7 (wild type) (mouse, UniProt Q00609 38-306)
T4 sequence (looked up): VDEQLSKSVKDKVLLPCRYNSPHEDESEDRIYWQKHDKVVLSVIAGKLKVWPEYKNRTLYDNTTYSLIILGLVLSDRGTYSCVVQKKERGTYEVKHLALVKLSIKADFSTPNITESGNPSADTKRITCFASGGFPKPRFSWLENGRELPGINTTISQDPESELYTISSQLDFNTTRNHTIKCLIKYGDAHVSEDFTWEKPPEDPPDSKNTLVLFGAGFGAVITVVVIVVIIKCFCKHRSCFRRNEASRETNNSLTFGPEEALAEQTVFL

B7 L179V = target: T5, B7 L179V (mouse, UniProt Q00609 38-306, L179V)
T5 sequence (looked up): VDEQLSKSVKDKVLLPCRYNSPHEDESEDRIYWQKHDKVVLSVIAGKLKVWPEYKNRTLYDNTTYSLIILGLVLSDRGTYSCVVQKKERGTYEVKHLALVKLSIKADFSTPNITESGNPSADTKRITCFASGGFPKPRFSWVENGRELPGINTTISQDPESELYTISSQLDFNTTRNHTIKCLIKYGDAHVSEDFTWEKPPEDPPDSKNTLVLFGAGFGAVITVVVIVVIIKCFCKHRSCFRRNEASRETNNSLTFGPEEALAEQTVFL

B7 E199A = target: T6, B7 E199A (mouse, UniProt Q00609 38-306, E199A)
T6 sequence (looked up): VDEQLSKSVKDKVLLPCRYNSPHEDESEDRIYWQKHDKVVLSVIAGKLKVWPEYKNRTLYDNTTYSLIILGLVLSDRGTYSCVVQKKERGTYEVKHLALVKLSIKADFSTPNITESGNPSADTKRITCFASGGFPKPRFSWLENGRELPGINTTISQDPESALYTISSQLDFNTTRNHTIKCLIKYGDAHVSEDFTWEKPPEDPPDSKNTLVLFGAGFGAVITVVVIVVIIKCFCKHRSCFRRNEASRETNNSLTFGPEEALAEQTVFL

% wild-type B7 binding (normalised to anti-B7 mAb 10.16A.1) (B7 K173E): 77%
MF (mean fluorescence, control subtracted) (B7 K173E): 44 MF
% wild-type B7 binding (normalised to anti-B7 mAb 10.16A.1) (B7 E180D): 68%
MF (mean fluorescence, control subtracted) (B7 E180D): 38 MF
% wild-type B7 binding (normalised to anti-B7 mAb 10.16A.1) (B7 L200A): 53%
MF (mean fluorescence, control subtracted) (B7 L200A): 28 MF
% wild-type B7 binding (normalised to anti-B7 mAb 10.16A.1) (murine B7 (wild type)): 100%
% wild-type B7 binding (normalised to anti-B7 mAb 10.16A.1) (B7 L179V): 18%
MF (mean fluorescence, control subtracted) (B7 L179V): 12 MF
% wild-type B7 binding (normalised to anti-B7 mAb 10.16A.1) (B7 E199A): 31%
MF (mean fluorescence, control subtracted) (B7 E199A): 16 MF
B1: CD28Ig (Fc fusion, mouse, UniProt P31041 20-150, looked up)
chain: NKILVKQSPLLVVDSNEVSLSCRYSYNLLAKEFRASLYKGVNSDVEVCVGNGNFTYQPQFRSNAEFNCDGDFDNETVTFRLWNLHVNHTDIYFCKIEFMYPPPYLDNERSNGTIIHIKEKHLCHTQSSPKL
